Test results as given in PMC8691596 (PLoS ONE, 2021).

B1: cynomolgus monkey FcγRI extracellular domain, C-terminal hexa-His (receptor)
chain: QVDTTKAVITLQPPWVSVFQEETVTLQCEVPRLPGSSSTQWFLNGTATQTSTPSYRITSASVKDSGEYRCQRGPSGRSDPIQLEIHRDWLLLQVSSRVFTEGEPLALRCHAWKDKLVYNVLYYQNGKAFKFFYRNSQLTILKTNISHNGAYHCSGMGKHRYTSAGVSVTVKELFPAPVLNASVTSPLLEGNLVTLSCETKLLLQRPGLQLYFSFYMGSKTLRGRNTSSEYQILTARREDSGFYWCEATTEDGNVLKRSPELELQVLGLQLPTPVWLH
B2: cynomolgus monkey FcγRIIa extracellular domain, C-terminal hexa-His (receptor)
chain: KAVLKLEPPWINVLREDSVTLTCGGAHSPDSDSTQWFHNGNLIPTHTQPSYRFKANNNDSGEYRCQTGRTSLSDPVHLTVLSEWLALQTTHLEFREGETIMLRCHSWKDKPLIKVAFFQNGKSKKFSHMNPNFSIPQANHSHSGDYHCTGNIGYTPYSSKPVTITVQGLSSLVPSVGSSSPTG
B3: cynomolgus monkey FcγRIIb extracellular domain, C-terminal hexa-His (receptor)
chain: TPAAPPKAVLKLEPPWINVLREDSVTLTCGGAHSPDSDSTQWFHNGNLIPTHTQPSYRFKANNNDSGEYRCQTGRTSLSDPVHLTVLSEWLALQTPHLEFREGETIMLRCHSWKDKPLIKVTFFQNGKSKKFSHMDPNFSIPQANHSHSGDYHCTGNIGYTPYSSKPVTITVQVP

These binders were tested against T1, anti-CD20 IgG1 L234S/L235T/G236R (human) (assay: SPR; antibody captured by biotin-labelled anti-human κ light chain on streptavidin CM5; soluble Fcγ receptor injected at one concentration (12.5 nM to 18 μM); HBS-EP+ pH 7.4, 25°C; Biacore 8K). Conditions: both partners purified.
T1 construct: rituximab VH, as in m1; human IgG1 constant region; as the light chain of m1; also called 2–52; variant 52; source: HEK293, transient, purified (Protein A)

Binder | response [RU]
B1 | < 1
B2 | < 1
B3 | < 1
